Laboratory results published in patent US20250361288A1 (Gilead, published 2025).

T1: human HVEM extracellular domain fused with an Fc fragment at the C-terminus (human, UniProt Q92956 39-202)
T1 construct: extracellular domain; Bought; also called hHVEM; not shown: Fc fragment at the C-terminus
T1 sequence (looked up): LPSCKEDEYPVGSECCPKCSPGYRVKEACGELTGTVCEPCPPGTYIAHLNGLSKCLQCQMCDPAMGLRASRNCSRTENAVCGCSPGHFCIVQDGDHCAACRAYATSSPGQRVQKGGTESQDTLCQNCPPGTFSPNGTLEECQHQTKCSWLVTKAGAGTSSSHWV

T2: mouse HVEM extracellular domain fused with an Fc fragment at the C-terminus (mouse, UniProt Q80WM9 39-206, limits assumed)
T2 construct: extracellular domain; Bought; also called mHVEM; not shown: Fc fragment at the C-terminus
T2 sequence (looked up): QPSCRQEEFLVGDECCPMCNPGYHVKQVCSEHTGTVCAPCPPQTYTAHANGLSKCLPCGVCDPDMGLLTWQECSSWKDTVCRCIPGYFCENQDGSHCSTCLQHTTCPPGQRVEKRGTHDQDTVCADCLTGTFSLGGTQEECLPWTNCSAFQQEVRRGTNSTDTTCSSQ


What was measured:
[1] = biological target: T1, human HVEM extracellular domain fused …; experiment: phage ELISA
Experimental: (§1) Individual clones from the fourth selection round were grown in 96-well deep well blocks in 100 μl of 2YT broth supplemented with 50 μg/ml ampicillin at 37° C. and 220 rpm for 5 hours. Then, 5 μl of helper phages were added to each well and incubated at 37° C. for 30 minutes. After centrifuging at 3,000 rpm for 10 minutes, the cells were resuspended and grown overnight in 150 μl/well of 2YT broth supplemented with 50 μg/ml ampicillin and 50 μg/ml kanamycin.
(§2) For the ELISA screening, 96-well ELISA plates were coated with target proteins (1 μg/ml in PBS) at 4° C. overnight and then blocked with 2% BSA for 2 hours at room temperature. The supernatant containing phage particles was added to the plates and incubated at room temperature for 1 hour. After incubation, the plates were washed five times with PBST. HRP (horseradish peroxidase) conjugated anti-M13 antibody (Sino Biological, China) was added to the wells and incubated at room temperature for 1 hour. Following another round of washing five times with PBST, 50 μl of TMB (3,3′, 5,5″-tetramethylbenzidine, #34029, ThemoFisher) was added to each well. After 5 minutes, the reaction was stopped by adding 50 μl stop solution (#C1058, Solarbio, China). The absorbance at 450 nm (OD450) was measured using a plate reader (SpectraMax M5, Molecule Devices). Wells coated with BSA were used as negative controls. Phage clones with an ELISA score ratio (target/BSA)>3 were considered positive clones.

[2] = biological target: T2, mouse HVEM extracellular domain fused …; experiment: phage ELISA
Experimental: as §1, §2

[3] = biological target: T3, human LTβR extracellular domain fused with an Fc fragment at the C-terminus (human, UniProt P36941 31-227); experiment: ELISA on coated target-Fc
T3 construct: extracellular domain; Bought; also called hLTβR; not shown: Fc fragment at the C-terminus
Experimental: (§3) Nunc MaxiSorp 96-well plates (Thermofisher) were coated with target proteins (1 μg/ml), and then blocked with 2% BSA-PBS buffer for one hour. Serial dilutions of the LIGHT muteins were added with a maximum concentration of 200 ng/ml. The plates were incubated for one hour, washed four times with PBST, and then incubated with mouse anti-His tag antibody (#105327, Sino Biological) for 1 hour. The plates were further incubated with HRP-conjugated goat anti-mouse secondary antibody (#SSA006, Sino Biological) before being washed three times with PBST and treated with TMB substrate (#34029, ThermoFisher). The plates were read at 450 nm on a SpectraMax M5 microplate reader (Molecule Devices). The ELISA results were analyzed using GraphPad Prism 9.0 software and the EC50s (half maximal effective concentration) were summarized in Table 5-1 and Table 5-2.

[4] = biological target: T4, mouse LTβR extracellular domain fused with an Fc fragment at the C-terminus (mouse, UniProt P50284 31-223); experiment: ELISA on coated target-Fc
T4 construct: extracellular domain; Bought; also called mLTβR; not shown: Fc fragment at the C-terminus
Experimental: as §3

[5] = biological target: T3, human LTβR extracellular domain fused …; experiment: phage ELISA
Experimental: as §1, §2

[6] = biological target: T4, mouse LTβR extracellular domain fused …; experiment: phage ELISA
Experimental: as §1, §2

[7] = biological target: T1, human HVEM extracellular domain fused …; experiment: ELISA on coated target-Fc
Experimental: as §3

T3 sequence (P36941 31-227): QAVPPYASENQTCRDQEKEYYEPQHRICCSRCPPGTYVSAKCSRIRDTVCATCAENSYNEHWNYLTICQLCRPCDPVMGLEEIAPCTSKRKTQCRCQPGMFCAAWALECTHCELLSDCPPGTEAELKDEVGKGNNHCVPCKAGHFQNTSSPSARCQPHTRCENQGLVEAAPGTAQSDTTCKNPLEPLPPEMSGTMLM
T4 sequence (P50284 31-223): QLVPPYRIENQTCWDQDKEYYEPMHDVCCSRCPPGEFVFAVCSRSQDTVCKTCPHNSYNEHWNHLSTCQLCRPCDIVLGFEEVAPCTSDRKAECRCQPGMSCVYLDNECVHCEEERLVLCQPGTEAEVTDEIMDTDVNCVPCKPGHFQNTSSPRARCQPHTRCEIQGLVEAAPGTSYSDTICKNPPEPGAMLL

Binder | binding result [1] | binding result [2] | EC50 [3] | EC50 [4] | binding result [5] | binding result [6] | EC50 [7]
LIGHT-9 (ligand, Printed mutations: G150S, T161G, L220S; Soluble protein carries an N-terminal His tag) DGPAGSWEQLIQERRSHEVNPAAHLTGANSSLTGSGGPLLWETQLGLAFLRGLSYHDGALVVTKAGYYYIYSKVQLSGVGCPLGLASGITHGLYKRTPRYPEELELLVSQQSPCGRATSSSRVWWDSSFLGGVVHLEAGEKVVVRVSDERLVRLRDGTRSYFGAFMV | no binding | binds | 0.0282 µg/mL | 0.0224 µg/mL |  |  | 
LIGHT-50 (ligand, Printed mutations: N102R, L120Q, H208R, K214E; Soluble protein carries an N-terminal His tag) DGPAGSWEQLIQERRSHEVNPAAHLTGARSSLTGSGGPLLWETQLGQAFLRGLSYHDGALVVTKAGYYYIYSKVQLGGVGCPLGLASTITHGLYKRTPRYPEELELLVSQQSPCGRATSSSRVWWDSSFLGGVVRLEAGEEVVVRVLDERLVRLRDGTRSYFGAFMV | binds | binds |  |  | binds | binds | 
LIGHT-48 (ligand, Printed mutations: L120P, L220R; Soluble protein carries an N-terminal His tag) DGPAGSWEQLIQERRSHEVNPAAHLTGANSSLTGSGGPLLWETQLGPAFLRGLSYHDGALVVTKAGYYYIYSKVQLGGVGCPLGLASTITHGLYKRTPRYPEELELLVSQQSPCGRATSSSRVWWDSSFLGGVVHLEAGEKVVVRVRDERLVRLRDGTRSYFGAFMV | binds | binds | 0.756 µg/mL | 0.42 µg/mL |  |  | 
LIGHT-43 (ligand, Printed mutations: G150R, S160T, L220S; Soluble protein carries an N-terminal His tag) DGPAGSWEQLIQERRSHEVNPAAHLTGANSSLTGSGGPLLWETQLGLAFLRGLSYHDGALVVTKAGYYYIYSKVQLRGVGCPLGLATTITHGLYKRTPRYPEELELLVSQQSPCGRATSSSRVWWDSSFLGGVVHLEAGEKVVVRVSDERLVRLRDGTRSYFGAFMV | binds | binds |  |  | binds | binds | 
LIGHT-45 (ligand, Printed mutations: G150S, S160P, T161S, L220S, R223H; Soluble protein carries an N-terminal His tag) DGPAGSWEQLIQERRSHEVNPAAHLTGANSSLTGSGGPLLWETQLGLAFLRGLSYHDGALVVTKAGYYYIYSKVQLSGVGCPLGLAPSITHGLYKRTPRYPEELELLVSQQSPCGRATSSSRVWWDSSFLGGVVHLEAGEKVVVRVSDEHLVRLRDGTRSYFGAFMV |  | binds | 0.0362 µg/mL | 0.0264 µg/mL |  |  | 
LIGHT-11 (ligand, Printed mutations: G150S, L220S; Soluble protein carries an N-terminal His tag) DGPAGSWEQLIQERRSHEVNPAAHLTGANSSLTGSGGPLLWETQLGLAFLRGLSYHDGALVVTKAGYYYIYSKVQLSGVGCPLGLASTITHGLYKRTPRYPEELELLVSQQSPCGRATSSSRVWWDSSFLGGVVHLEAGEKVVVRVSDERLVRLRDGTRSYFGAFMV | no binding | binds | 0.0395 µg/mL | 0.0233 µg/mL |  |  | 
LIGHT-49 (ligand, Printed mutations: L105P, Q117R, L220Q; Soluble protein carries an N-terminal His tag) DGPAGSWEQLIQERRSHEVNPAAHLTGANSSPTGSGGPLLWETRLGLAFLRGLSYHDGALVVTKAGYYYIYSKVQLGGVGCPLGLASTITHGLYKRTPRYPEELELLVSQQSPCGRATSSSRVWWDSSFLGGVVHLEAGEKVVVRVQDERLVRLRDGTRSYFGAFMV | binds | binds |  |  | binds | binds | 
LIGHT-44 (ligand, Printed mutations: G150R, L158P, L220S; Soluble protein carries an N-terminal His tag) DGPAGSWEQLIQERRSHEVNPAAHLTGANSSLTGSGGPLLWETQLGLAFLRGLSYHDGALVVTKAGYYYIYSKVQLRGVGCPLGPASTITHGLYKRTPRYPEELELLVSQQSPCGRATSSSRVWWDSSFLGGVVHLEAGEKVVVRVSDERLVRLRDGTRSYFGAFMV | binds | binds |  |  | binds | binds | 
LIGHT-47 (ligand, Printed mutations: L126M, A190V, H208Y; Soluble protein carries an N-terminal His tag) DGPAGSWEQLIQERRSHEVNPAAHLTGANSSLTGSGGPLLWETQLGLAFLRGMSYHDGALVVTKAGYYYIYSKVQLGGVGCPLGLASTITHGLYKRTPRYPEELELLVSQQSPCGRVTSSSRVWWDSSFLGGVVYLEAGEKVVVRVLDERLVRLRDGTRSYFGAFMV | binds | binds | 0.228 µg/mL | 0.0706 µg/mL |  |  | 
LIGHT-33 (ligand, Printed mutations: T161P, L220S; Soluble protein carries an N-terminal His tag) DGPAGSWEQLIQERRSHEVNPAAHLTGANSSLTGSGGPLLWETQLGLAFLRGLSYHDGALVVTKAGYYYIYSKVQLGGVGCPLGLASPITHGLYKRTPRYPEELELLVSQQSPCGRATSSSRVWWDSSFLGGVVHLEAGEKVVVRVSDERLVRLRDGTRSYFGAFMV |  | binds | 0.0612 µg/mL |  |  | binds | 0.0256 µg/mL
LIGHT-30 (ligand, Printed mutations: S160R, T161N, L220S; Soluble protein carries an N-terminal His tag) DGPAGSWEQLIQERRSHEVNPAAHLTGANSSLTGSGGPLLWETQLGLAFLRGLSYHDGALVVTKAGYYYIYSKVQLGGVGCPLGLARNITHGLYKRTPRYPEELELLVSQQSPCGRATSSSRVWWDSSFLGGVVHLEAGEKVVVRVSDERLVRLRDGTRSYFGAFMV |  | binds |  |  |  |  | 0.157 µg/mL
LIGHT-51 (ligand, Printed mutations: A101D, S160N, L220S; Soluble protein carries an N-terminal His tag) DGPAGSWEQLIQERRSHEVNPAAHLTGDNSSLTGSGGPLLWETQLGLAFLRGLSYHDGALVVTKAGYYYIYSKVQLGGVGCPLGLANTITHGLYKRTPRYPEELELLVSQQSPCGRATSSSRVWWDSSFLGGVVHLEAGEKVVVRVSDERLVRLRDGTRSYFGAFMV | binds | binds |  |  | binds | binds | 
LIGHT-41 (ligand, Printed mutations: G150R, S160G, L220S; Soluble protein carries an N-terminal His tag) DGPAGSWEQLIQERRSHEVNPAAHLTGANSSLTGSGGPLLWETQLGLAFLRGLSYHDGALVVTKAGYYYIYSKVQLRGVGCPLGLAGTITHGLYKRTPRYPEELELLVSQQSPCGRATSSSRVWWDSSFLGGVVHLEAGEKVVVRVSDERLVRLRDGTRSYFGAFMV |  | binds | 0.108 µg/mL | 0.0311 µg/mL |  |  | 
LIGHT-32 (ligand, Printed mutations: S160R, L220S; Soluble protein carries an N-terminal His tag) DGPAGSWEQLIQERRSHEVNPAAHLTGANSSLTGSGGPLLWETQLGLAFLRGLSYHDGALVVTKAGYYYIYSKVQLGGVGCPLGLARTITHGLYKRTPRYPEELELLVSQQSPCGRATSSSRVWWDSSFLGGVVHLEAGEKVVVRVSDERLVRLRDGTRSYFGAFMV | binds | binds | 0.247 µg/mL | 0.0632 µg/mL |  |  | 
LIGHT-40 (ligand, Printed mutations: L156P, H208Y; Soluble protein carries an N-terminal His tag) DGPAGSWEQLIQERRSHEVNPAAHLTGANSSLTGSGGPLLWETQLGLAFLRGLSYHDGALVVTKAGYYYIYSKVQLGGVGCPPGLASTITHGLYKRTPRYPEELELLVSQQSPCGRATSSSRVWWDSSFLGGVVYLEAGEKVVVRVLDERLVRLRDGTRSYFGAFMV |  | binds | 0.0959 µg/mL |  |  | binds | 0.0503 µg/mL
